Experimental data: patent publication US20240043566A1 (SUZHOU TRANSCENTA THERAPEUTICS, published 2024)

biological target: T1, human PD-L1-Fc (Sino Biological, 70110-D02H) (human, UniProt Q9NZQ7 19-239); experiment: BLI, PD-L1-Fc loaded, scFv in solution
T1 construct: also called hPD-L1-Fc; not shown: Fc part
T1 sequence (Q9NZQ7 19-239 limits assumed, stated change not applied): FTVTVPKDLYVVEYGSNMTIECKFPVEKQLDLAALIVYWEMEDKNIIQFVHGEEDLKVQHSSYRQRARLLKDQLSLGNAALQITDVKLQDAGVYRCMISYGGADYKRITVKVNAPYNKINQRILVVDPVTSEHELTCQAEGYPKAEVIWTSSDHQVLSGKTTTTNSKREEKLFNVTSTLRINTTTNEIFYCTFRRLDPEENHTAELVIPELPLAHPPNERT

| Fold increase (over L-CDR1-WT) | Binder |
| --- | --- |
| 4.08 fold | 4B6 scFv variant L-CDR1-1 (scFv, also called 4B6-L-CDR1-1) scFv: DIQMTQSPSSLSASVGDRVTITCKASQNVGAIVAWYQQKPGKAPKLLIYSASNRYTGVPSRFSGSGSGTDFTLTISSLQPEDIATYYCQQYSNYPTFGQGTKLEIKGGGGSGGGGSGGGGSQVQLVQSGAEVKKPGASVKVSCKASGYVFTDYYMNWVRQAPGQSLEWMGDINPNNAGTSYNHKFKGRVTVTVDKSISTAYMELSRLRSDDTAVYYCVKWGDGPFAYWGQGTLVTVSS |
| 4.96 fold | 4B6 scFv variant L-CDR1-2 (scFv, also called 4B6-L-CDR1-2) scFv: DIQMTQSPSSLSASVGDRVTITCKASQNVPAAVAWYQQKPGKAPKLLIYSASNRYTGVPSRFSGSGSGTDFTLTISSLQPEDIATYYCQQYSNYPTFGQGTKLEIKGGGGSGGGGSGGGGSQVQLVQSGAEVKKPGASVKVSCKASGYVFTDYYMNWVRQAPGQSLEWMGDINPNNAGTSYNHKFKGRVTVTVDKSISTAYMELSRLRSDDTAVYYCVKWGDGPFAYWGQGTLVTVSS |
| 10.1 fold | 4B6 scFv variant L-CDR1-3 (scFv, also called 4B6-L-CDR1-3) scFv: DIQMTQSPSSLSASVGDRVTITCKASQNVKGAVAWYQQKPGKAPKLLIYSASNRYTGVPSRFSGSGSGTDFTLTISSLQPEDIATYYCQQYSNYPTFGQGTKLEIKGGGGSGGGGSGGGGSQVQLVQSGAEVKKPGASVKVSCKASGYVFTDYYMNWVRQAPGQSLEWMGDINPNNAGTSYNHKFKGRVTVTVDKSISTAYMELSRLRSDDTAVYYCVKWGDGPFAYWGQGTLVTVSS |
